Changes are numbered by the printed parent chain.
B1: AT-ΔR393-S394: human antithrombin with deletion of the amino acids at positions 393 and 394 (protein, listed as Homo sapiens)
chain: HGSPVDICTAKPRDIPMNPMCIYRSPEKKATEDEGSEQKIPEATNRRVWELSKANSRFATTFYQHLADSKNDNDNIFLSPLSISTAFAMTKLGACNDTLQQLMEVFKFDTISEKTSDQIHFFFAKLNCRLYRKANKSSKLVSANRLFGDKSLTFNETYQDISELVYGAKLQPLDFKENAEQSRAAINKWVSNKTEGRITDVIPSEAINELTVLVLVNTIYFKGLWKSKFSPENTRKELFYKADGESCSASMMYQEGKFRYRRVAEGTQVLELPFKGDDITMVLILPKPEKSLAKVEKELTPEVLQEWLDELEEMMLVVHMPRFRIEDGFSLKEQLQDMGLVDLFSPEKSKLPGIVAEGRDDLYVSDAFHKAFLEVNEEGSEAAASTAVVIAGLNPNRVTFKANRPFLVFIREVPLNTIIFMGRVANPCVK
B2: AT-ΔR393: human antithrombin with deletion of the amino acid at position 393 (protein, listed as Homo sapiens)
chain: HGSPVDICTAKPRDIPMNPMCIYRSPEKKATEDEGSEQKIPEATNRRVWELSKANSRFATTFYQHLADSKNDNDNIFLSPLSISTAFAMTKLGACNDTLQQLMEVFKFDTISEKTSDQIHFFFAKLNCRLYRKANKSSKLVSANRLFGDKSLTFNETYQDISELVYGAKLQPLDFKENAEQSRAAINKWVSNKTEGRITDVIPSEAINELTVLVLVNTIYFKGLWKSKFSPENTRKELFYKADGESCSASMMYQEGKFRYRRVAEGTQVLELPFKGDDITMVLILPKPEKSLAKVEKELTPEVLQEWLDELEEMMLVVHMPRFRIEDGFSLKEQLQDMGLVDLFSPEKSKLPGIVAEGRDDLYVSDAFHKAFLEVNEEGSEAAASTAVVIAGSLNPNRVTFKANRPFLVFIREVPLNTIIFMGRVANPCVK
B3: AT-ΔS394: human antithrombin with deletion of the amino acid at position 394 (protein, listed as Homo sapiens)
chain: B2 chain with S393R

Target: T1, factor Xa (Homo sapiens, UniProt P00742)
T1 construct: purchased Kordia
T1 sequence (P00742 235-488 limits assumed): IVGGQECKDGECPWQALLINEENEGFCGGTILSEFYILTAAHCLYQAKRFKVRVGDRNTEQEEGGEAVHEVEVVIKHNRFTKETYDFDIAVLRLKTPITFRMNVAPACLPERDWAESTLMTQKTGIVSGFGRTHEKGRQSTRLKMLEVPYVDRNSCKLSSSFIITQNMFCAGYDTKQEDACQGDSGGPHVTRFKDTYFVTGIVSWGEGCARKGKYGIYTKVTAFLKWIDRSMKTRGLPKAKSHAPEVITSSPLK
T1 sequence (P00742 41-179 partner limits assumed): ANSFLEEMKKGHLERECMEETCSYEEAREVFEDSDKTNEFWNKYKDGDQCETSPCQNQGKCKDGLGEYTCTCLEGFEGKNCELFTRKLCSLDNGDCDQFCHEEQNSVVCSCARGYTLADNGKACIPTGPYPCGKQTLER
Assay: Kinetic assay of factor Xa inhibition by antithrombins in a purified system (chromogenic substrate, continuous or discontinuous)
Assay type: biochemical
Details: with or without pentasaccharide; compared with plasma / wild type antithrombin
Method: Briefly, factor Xa is incubated with an excess of tested antithrombins (corresponding to plasma antithrombin, or wild type antithrombin or mutated antithrombins and varying in each assay realized) in the presence or absence of pentasaccharide (Fondaparinux sodique, Arixtra®, GlaxoSmithKline) and the factor Xa residual activity is measured as a function of time. The pentasaccharide is added in excess in the reaction media so that every tested antithrombin is bound to the pentasaccharide. In the absence of pentasaccharide, polybrene is added in order to neutralize any sulfated glycosaminoglycan that may be present in the reaction media. The residual factor Xa activity is measured as the increase in absorbance at 405 nm resulting from cleavage of the chromogenic substrate (S2765 or S2222, Chromogenix) using a microplate reader (Dynatech MR 5000). The analysis of the data is performed using the GraphPad Prism version 3 software. Absorbance recording is continuous or discontinuous according to the expected inhibition rate constant (kon).
The inhibition rate constant (kon) is the second order rate constant given in M^−1·s^−1 which define the velocity of stable complex formation between protease and antithrombin (higher is the kon value, faster will the complex be established).
When the expected kon is lower than 10^4 M^−1·s^−1 the discontinuous method is used. Factor Xa (0.2 to 1 μM, or 0.1 to 1 μM) is incubated with tested antithrombins (0.2 to 10 μM, or 1 to 10 μM) in the presence of pentasaccharide (10 to 100 μM) or polybrene (100 μg/ml) in a final volume of 10 μl for 10 seconds to 5 hours, or 10 seconds to 24 hours. At the end of this incubation period, 190 μl of kinetic buffer containing 200 μM substrate is added and absorbance at 405 nm is recorded.
The kinetic rate constant (k) is estimated by fitting the substrate hydrolysis initial rate curve to equation (1) using non-linear regression with v0 and v∞ being the substrate hydrolysis rate at time to or too respectively. […] (1)
The inhibition rate constant (kon) is calculated from the rate constant (k) using equation (2) where AT is the tested antithrombin concentration. k=AT·kon (2)
When the expected kon is higher than 10^4 M^−1·s^−1′ the continuous method is used. The tested antithrombin (0.01 to 1 μM, or 0.1 to 1 μM) is incubated with the substrate (200 μM) in the presence of pentasaccharide or polybrene in a final volume of 100 μL, or 190 μl, and the reaction is started by addition of 100 μL, or 10 μL, of factor Xa (2 nM or 10 nM). The rate constant (k) is obtained by fitting the substrate hydrolysis curve to equation (3) or (3′) using non-linear regression analysis where A0 is the absorbance at t0, and vi and vs are respectively the initial and final rates of substrate hydrolysis in the absence of tested antithrombin. A405=A0+vi·(1−exp(−k·t))/k. (3) Equation (3′) is also used, particularly in presence of plasma. A405=A0+vs*t+(vi−vs)*(1−exp(−k·t))/k. (3′)
The inhibition rate constant (kon) is calculated from the kinetic constant (k) using equation (4) that takes into account the competitive effect of the substrate, with S being the initial substrate concentration, Km, the Michaelis constant for factor Xa-substrate interaction, AT the tested antithrombin concentration. k=(kon/(1+S/Km))·[AT] (4)
Mutated antithrombins and wild type AT inhibitory activity are measured in the same conditions and compared with plasma AT inhibitory activity.

| Molecule | factor Xa inhibitory activity |
| --- | --- |
| B1 | negligible |
| B2 | negligible |
| B3 | negligible |

Test system: plasma anti FXa activity in mice treated with pentasaccharide
Assay: Murine model: mutated antithrombins as antidotes of fondaparinux, plasma anti FXa activity
Assay type: in vivo, mouse
Details: injection of mutated antithrombin after fondaparinux
Method: The efficiency of the mutated antithrombins AT-R393H(SEQ ID NO: 4), AT-Pro394 (SEQ ID NO: 6), AT-ΔR393-S394 (SEQ ID NO: 18), AT-ΔR393 (SEQ ID NO: 8), AT-ΔS394 (SEQ ID NO: 10), AT-N135Q-R393H(SEQ ID NO: 14), AT-N135Q-Pro394 (SEQ ID NO: 16), AT-N135Q-ΔR393-S394 (SEQ ID NO: 24), AT-N135Q-ΔR393 (SEQ ID NO: 20), AT-N135Q-A5394 (SEQ ID NO: 22) as antidotes is evaluated in a murine model.
The different drugs to be tested (fondaparinux, low molecular weight heparin, full length heparin and the mutated antithrombins) are administrated by intra-venous injection in the caudal vein to avoid the variability encountered when administration is performed subcutaneously. However, Heparin derivatives (fondaparinux, low molecular weight heparin and full length heparin) could also be administrated subcutaneously.
The blood is collected by punction in cave vein into tubes containing 0.105 mol/L trisodium citrate (1:10). Platelet-poor plasma is obtained by centrifugation at 2300 g for 10 minutes at 12° C. and stored at −80° C. until use.
The following elements are determined: • the doses of fondaparinux inducing an overdose in mice, • the mutated antithrombins time course, and in particular the time required to observe a maximal biological effect, • the minimal doses of mutated antithrombins necessary to neutralize fondaparinux.
For each of these experiments, 4 groups of 5 mice each are used: • In the first group mice receive fondaparinux vehicle and then antidote (mutated antithrombin) vehicle. • In the second group, mice receive fondaparinux and then antidote vehicle • In the third group, mice receive fondaparinux vehicle and then antidote • In the last group, mice receive fondaparinux and then antidote
Anti FXa activity measurements is performed as previously described using a Stachrom Heparin® kit on a STA (Stago, France) or a Rotachrom Heparin® kit with procedure adapted for measurement in microplate reader (Dynatech MR 5000). A calibration curve with pentasaccharide is performed, allowing the expression of the results in nmol/ml (or in mg/L) of plasma.
Thus, the antidote (mutated antithrombins) is administered intravenously, 5 min after the intra-venous injection of the fondaparinux, and 5, 15 or 30 min after the subcutaneous injection of the fondaparinux.
The mutated antithrombin time course is studied by measuring the plasma anti-Xa activity 5 min, 10 min, 20 min and 40 min after the antidote administration.
Once the time of action determined, a dose response curve is performed in vivo to determine the dose of antidote necessary to obtain a decrease in Fondaparinux plasma concentration within the therapeutic range around 1.2 nmol/ml (or 2 mg/L), or around 0.7 nmol/ml (or 1.2 mg/L).

| Molecule | plasma anti FXa activity in mice treated with pentasaccharide |
| --- | --- |
| B1 | significant decrease |
| B2 | significant decrease |
| B3 | significant decrease |

Reference: patent US8741844B2, “Use of mutated antithrombins for treating or preventing coagulation disorders” (Universite Paris-Sud XI, priority 2007, dated 2014)
